Assay: yeast display, Sf9 membrane polyspecificity reagent, FACS + sequencing; frameworks hold sequencing errors
Summary of the method: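 After 36–48 hours of galactose induction, yeast (Saccharomyces cerevisiae BJ5465) displaying a synthetic nanobody library were stained at 4 °C for 1 hour with 10% biotinylated, detergent-solubilized Sf9 membrane reagent. Streptavidin microbeads enriched the stained cells before FACS sorting into low and high (top ~1%) gates on anti-HA and streptavidin fluorescence. Each clone's polyreactivity label reflects its gate of origin.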

Row | Sequence | polyreactivity (PSR sort gate)
1 | QVQIVESGGGLVQAGGSLRLSCAASGRTLSYYAMGWYRQAPGKEREFVAAITGSGGSTYYADSVKGRFTISRDNAKNYVYFQMNSLKPEDTAVYYCNAKGLGVFTVEYYYWGQGTQVTVSS | low polyreactivity
2 | QVQLVESGGGLVQAGGSLRLSCAASGSIFWYYAMGWYRQAPGKERELVAGITRGGSTSYADSVKGRFTISRDNAKKTVYLQMNSLKPEDTAVYYCAKRNPYSRYGYWGQGTQVTVSS | high polyreactivity
3 | QVQVVESRGGLVQAGGRLRLSCAASGSTFGVNAMGWYRTAPGKERELVAAISYTGGSTYYADSVKGRFTISRDNAKNTVYLQMNSLKAEHTAVSYCAVEVGYTDSPYSYDYWGQGTQVTVSS | low polyreactivity
4 | QVQLVESGGGLVQAGGSLRLSCAASGRTFKKYAMGWYRQAPGKERELVAAITSSGGSTYYADSVKGRFTISRDNAKNTVYLQMNSLKPEDTAVYYCNTVYRHRQRAKYNYWGQGTQVTVSS | high polyreactivity
5 | QGQHVESGGGLVQAGGSLRLICAASGRIIVHYVMGWYRQAPRKERELVAAISRSGGRTYYADSVKGRFTISRDNAKNTVYLQMNSLKPEDTAVYYCATDASTDKYDYWGQGTQVTVSS | high polyreactivity
6 | QVQLVESGGGLVQAGGSLRLSCAASGRIFYGNVMGWYRQAPGKERELVAVITSGGNTNYADSVKGRFTISRDNAKNTVYLQMNSLKPEDTAVYYCATAVVAGVWGYDYWGQGTQVTVSS | low polyreactivity
7 | QVQLVESGGGLVQAGGSLRLRCAATGFIFSSYAMGWYRQAPGKERELVAAINRSGSTYYADSVKGRFTISRDNAKNTVYLQMNSLKPEDTADYYCNARRYYYRYRNYDYWGQGTQVTVSS | high polyreactivity
8 | QVQLVESGGGLVQAGGSLRLSCAPSGRIIYRYAIGWYRQAPRKETDLVAAITIGGRTNYADSVKGRFTISRDNANNPVYLEMISLKPEDTAVYYCAVVLYTRYPPRVRYYYWGQGTQVTVSS | high polyreactivity
9 | QDQLVESGGGLVQAGGSLRLSCAASGLTFDKYVMGWYRQAPGKERELVAAITKGGGSTYYADSVKGRFTISRDNAKNTVYLQMNSLKPEDTAVYYCAVTRPLRYWGQGTQVTVSS | high polyreactivity
10 | QVQLVESGGGLVQEGGSLRLICAASGSTFWANAMGWYRQEPGKERELVAAISVRGGNTYYADSVKGRFTISRDNAKNTVYLQMNSLKAEVTAVYYCAARPISWTSYYDYWGQGTQVTVSS | high polyreactivity
11 | QVQLVESVGGLVQAGGSLRISCAASGRITQIYAMGWSRQAPRKEWELVARITSTDSTYYADSVKGRFTISRDNAKKTVYLKMNSLTPEDTAVYYCAASWWSPYDYWGQGTQVTVSS | low polyreactivity
12 | QVQLVESGGGLVQAGGSLRLSCAASGRTFQSNGMGWYRQAPGKERELVAAITWSSGTTYYADSVKGRFTISRDNAKNTVYLQMNSLKPEDTAVYYCAADWGHWNSLFYSGFGYWGQGTQVTVSS | low polyreactivity
13 | QVKLVESGGGLVQAGGSLRLSCAASGSIFRYYAMGWYRQAPGKERELVAAMTASGGRTHYADSVKGRFTISRDNAKNTVYLQMNSLKLEDTAVYYCAADLYYAWYWKQHYDYCGQGTQVTVSS | high polyreactivity
14 | QVQLVESGGGLVQAGGSLRLSCAASGRTFARYVMGWYRQAPGKERELVAAISGGGGSTYYADSVKGRFTISRDNAKNTVYLQMNSLKPEDTAVYYCAAVPEGPNTGDDANGLDYWGQGTQVTVSS | low polyreactivity
15 | QVQHVETGGGLVQAGGSHRLSCAASGLIFDYNAMGWYTQAPRKERELDADISSGGSTYYADSVKGRFTISSDNGKNSVYLQMNSLKTEDTAVYYCATRRQAQYTRYYGSRQFYYWGQGTQVTVSS | high polyreactivity
16 | QVQLQESCGGLVQAGGSLRLSCAASGTIFRFRYMAWHRQAPGKERELVAGINGGTTTYYADSVIGLFTISRDNAKNTVYLQMNSLKPDDTAVYNCAAGASRLTYYDYWGQGTQVTVIS | low polyreactivity
17 | QVQLVESGRGLVQAGGSLRLSCAASGRTLSQYAMGWYRQAPGKERELVAAITRSGGSTYYADSVTGRFTISRDISKNTVYLQMNSLKRDDTAVYYCNITLYTTYDYWGQGTQVTVSS | low polyreactivity
18 | QVQLEESGGGLVQAGGSLRLSCAASGGIFPAYAMGWYRQAPGKERELVASISANGGRTYYADSVKGRFTISRDNAKNTVYLQMNSLKPEDTAVYYCNASSLSGSWRFYYWGQGTQVTVSS | high polyreactivity
19 | QVQLVESGGGLVQAGGSLRLRCAASGGNFDNYAMGWYRQAPGKERELVAAISRSGSSTFYADSVNGRFTISRDNAKNTVYLQMNSLKPEDTAVYYCSARYYYFAVYYGYIFEYDYWGQGTQLTVSS | low polyreactivity
20 | QVQLVESGGGLVQAGGSLRLSCAASGNIFIYNAMGWYRQAPGKERELVAAISVSGGDTYYADSVKGRFTISRDNAKNTVYLQMNSLKPEDTAVYYCAAEAEYIELDYWGQGTQVTVSS | low polyreactivity
21 | QVQLVESGGVLLQAGGSLRLSCAASGTIQYIKTMGWYRQAPGKERELVAAITYSGGSTYYADSVKGRFTISRDNAKNTVYLQRNSLKPVVTAVYYCAGDGYYGGYNYWGQGTQVTVSS | low polyreactivity
22 | QVQLVESGGGLVKAGGSLRLSCAASGSISAGNAMGWNIHAPGKERELVAAISGSGGSTFYADSVKGRFTISRYNAKNSVYLQINSLKPEDTAVYYCAARGGYRLRYIPYVRYDYWGQGTQVTVSS | high polyreactivity

Row | Sequence | polyreactivity (PSR sort gate)
23 | QVQLVESGGGLVQAGGSLRLSCAASGFIFRTYSMGWYRQAPGKERELVAAISGTTGSTYYADSVKGRFTISRDNAKNTVYLQMNRLKPEDTAVYYCAADYYWYIRYDYWGQGTQVTVSS | low polyreactivity
24 | QVQLVESGGGLVQAGGSLRLSCAASASTFILSAMGWYRQAPGNERELVAAISSDGSTYYADSVKGRFTISRDNAKNTVYLQMNSLKPEDTAVYYCAAYGYDADTGYDYWGQGTQVTVSS | low polyreactivity
25 | QVQLVESGGGLVQAGGSLRLSCAASGRIFSTYVMGWYRQAPGKERELVAAITWSGGSTYYADSVKGRFTISRDTAQNTVYLQMNTLKPEDTAVYYCAADEIYGYDYWGQGTQVTVSS | high polyreactivity
26 | QVQLEESGGGLVQAGGSLRLSCAASGMILTYYAMAWNRQAPGKERELVAGISSGTNTNYADSVKWRFTISRDNAKNTVYLQMNSLKPEDTAVYYCANTRGYEFVAYGYWGQGTQVNVSS | low polyreactivity
27 | QVQLVESGGGLVQAGRSLRLSCASSGRIFSSYAKGWYRQAPGKERELVAAITSGGSTDYADSVKGRFTISRDNAKNTVYLQIYRLNPEDTAVYYCAKAFLPPWTYSPYYLFYYWGQGTQVTVSS | low polyreactivity
28 | QVQLVESGGGLVQAGGSLRLSCAASGITFTSYAMGWYRQATGKERELVAAITSSGSSTYYADSVKGRFTISRDNAKNTVYLQMNSLKPEDTAVYYCAAKHVGWYVQEEDYWGQGTQVTVSS | low polyreactivity
29 | QVQLVESGGGLVQAGGSLRLSCAAYGGTLPVNAMGWYRQAPVKERELVAAITTGTSTNYADSVKGRFTISRDNAKNTVYLQMNSLKPEDNAVYYCAKDQADFAYGYWGEGTQVTVSS | low polyreactivity
30 | QVELQVSGGGLVRAGGSLRLSCAASGNIFDADIMGWYRQAPGKERELVASITGGGSTSYAESAKGRFTISRDNAKNAVYLQMNSLKPEDTAVYYCARDSWWYHHYDYWGQGTQVTVSS | low polyreactivity
31 | QVQLVESGGGLVQAGGSLRLSCAASGRTFSYYTMGWYRQAPGKERELVAAITSSGGSTYYADSVKGRFTISRDNAKNTVYLQMNSLKPEDTAVYYCAVLNYAGKYYYWGQGTQVTVSS | high polyreactivity
32 | QVQLVESGGGLVQAGGSLRLSCAASGRTFGRNAMGWYRQAPGKERELVAAISYGGGSTYYADSVKGRFTISRDNAKNTVYLQMNSLKPEDTAVYYCAAPTDDSSLGVYKHGYWGQCTQVTVSS | low polyreactivity
33 | QVQLVESGGGLVQAGGSLRLSCAASGRTFLYNAMGWYRQAPGKERELVAAISFDDGSTYYADSVKGRFTISRDNAKNTVYLQMNSLKPEDTAVYYCAAEYLYVGDSQAYNQYEYWGQGTQVTVSS | low polyreactivity
34 | QVQLVESGGGLVQAGGSLRLSCAASGSTFINYAMGWYREAPGKERELVAAISKGGGSTYYADSVKGRFTISRDTAKNTVYLQINSLKPEDTAVYDCARARSGGSHREYYWGQGTQVTVSS | high polyreactivity
35 | QVLLVESGGGLVQAGGSLRLSCAASGRTFVYYTMGWDRQAPGKERELVAAINWRGTSTYYADSVKGRFTISRDNAKNTVYLQMNSLKPEDTAVYYCYAERNAGFDYWGQGTQVTVSS | high polyreactivity
36 | QVQLVESGGGLVQAGGSLRLSSAASGRIFYRNAMGWYRQAPGKERELVASITSGGRTNYADSVKGRFTFSRDNAKNTVYLHMNSLKPEDTAVYYCAAPPPYSVRTFRFYYWGQGTQVTVSA | high polyreactivity
37 | QVQLVESGGGLVQAGGSLRLSCAASGFIFDTYVRGWYRQAPGKERELVAAISRTGGRTYYADSVKGRFTISRDNAKNTLYLQMNSLKPEDTAVYYCAARQSTQSGSYRRYNYWGQGTQVTVSS | high polyreactivity
38 | QVQLVESGGGLVQAGGSLRLSCAASGFIFYSNAMGWYIQAPGKEREVVAAISWDAGSTYYADSVKGRFTISRDNAKNTVYLQMISLKPEDSAVYYCATDRIVGRYIYNYWGQGTQVTVSS | high polyreactivity
39 | QVQLVESGGGLVQAGGSLRLSCAASGRTFRWYAMGWYRQAPGKERELVAAITSGGGTYYADSVKGRFTIARDNAKNTVYLQMNSLKPEDTAVYYCNKLHRDRYDYWGQGTQVTVSS | high polyreactivity
40 | QVQIVESGGRIVQAGGSIRLSCAASGSTFLFYAMGRSRQAPGKERQLVAAISYSGGSTFYADSVKGRFTISRDNAKNTVYLQMNSLKPEDTAVYYCAAESYSYGFTHEYWGQGTQETVSS | high polyreactivity
41 | QVQLLESGGGLVQAGGTLRLSCSASGGIFVNYAMGWYRQAPGKERELVAAISRSGGSTYYADSVKGRFTISRDNAKNTVYLQLNSLKPEVTAVYYCNAVLQKYRFEYDYWGQGSQVTVSS | high polyreactivity
42 | QVQLVESGGGLVQAGGSLRLSCAASGFISRTNAMGWSRQEPGKERELVAGINSGGNTYYADSVKGRFTISRDNAKNTVYLQMNSLKPEDTADYYCAALWSLRRSRPRFDYWGQGTQVTVSS | high polyreactivity
43 | QVQLEESGGSIVQAGGSLRLSCAASGYTFLGNAMGWYRKAPGKERELVAAISSGGTTFYADSVMGRFTISRDNAKNTVYLQMNSLNPEDTAVYYCAAKDTTVFYYDDDYWGQGTQVTVSS | low polyreactivity

Source: the nanobody polyreactivity screen of Harvey et al. (2022)
